# Measured values reported in US20140087995A1 (published 2014).
# Numbered stars: 1 amine (or outer) side, 2 acyl side, 3 side chain; on linkers, the order of the positions; unused ones are H or OH. Bridge positions count the residues as written; N and C are the ends. Side chains are listed from the residue outwards. Ends that are not written are not given here. * marks the point of attachment. C20 diacid = O=C(O)CCCCCCCCCCCCCCCCCCC(=O)*; γGlu = O=C(O)[C@H](CCC(=O)[*:2])N[*:1]; AEEA = NCCOCCOCC(=O)O
# T1: human amylin receptor (amylin 3(a) receptor: human calcitonin receptor with RAMP-3) (human, UniProt P30988 25-474; O60896 24-148)
# T1 construct: whole, on cells; also called hAmylin-R; hAmylinR
# T1 sequence (looked up) 1: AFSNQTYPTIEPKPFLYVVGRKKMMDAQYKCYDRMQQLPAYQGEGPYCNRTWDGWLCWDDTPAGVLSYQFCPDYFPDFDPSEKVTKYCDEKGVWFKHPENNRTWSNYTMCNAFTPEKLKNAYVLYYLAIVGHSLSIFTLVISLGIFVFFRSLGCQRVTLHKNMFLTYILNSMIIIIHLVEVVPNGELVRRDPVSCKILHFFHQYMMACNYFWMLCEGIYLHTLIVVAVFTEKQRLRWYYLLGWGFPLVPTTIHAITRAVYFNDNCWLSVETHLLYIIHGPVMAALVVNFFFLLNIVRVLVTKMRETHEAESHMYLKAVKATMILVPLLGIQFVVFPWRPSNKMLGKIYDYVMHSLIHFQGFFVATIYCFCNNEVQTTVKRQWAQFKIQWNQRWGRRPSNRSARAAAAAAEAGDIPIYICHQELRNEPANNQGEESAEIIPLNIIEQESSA
# T1 sequence (looked up) 2: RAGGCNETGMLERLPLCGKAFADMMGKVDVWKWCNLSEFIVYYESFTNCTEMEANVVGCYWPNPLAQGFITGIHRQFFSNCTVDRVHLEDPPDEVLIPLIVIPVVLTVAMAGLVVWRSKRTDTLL
# B1: N^ε1-[2-[2-[2-[[(4S)-4-carboxy-4-(19-carboxynonadecanoylamino)butanoyl]amino]ethoxy]ethoxy]acetyl]-[Gly14,Arg17,Pro21,Pro27,Pro31]-h-amylin (peptide)
# peptide: K([AEEA-γGlu-C20 diacid])CNTATCATQRLAGFLRHSSPNFGAIPSSTPVGSNTY-NH2
# modifications: disulfide 2-7; N-terminus assumed
# SMILES: CC[C@H](C)[C@H](NC(=O)[C@H](C)NC(=O)CNC(=O)[C@H](Cc1ccccc1)NC(=O)[C@H](CC(N)=O)NC(=O)[C@@H]1CCCN1C(=O)[C@H](CO)NC(=O)[C@H](CO)NC(=O)[C@H](Cc1c[nH]cn1)NC(=O)[C@H](CCCNC(=N)N)NC(=O)[C@H](CC(C)C)NC(=O)[C@H](Cc1ccccc1)NC(=O)CNC(=O)[C@H](C)NC(=O)[C@H](CC(C)C)NC(=O)[C@H](CCCNC(=N)N)NC(=O)[C@H](CCC(N)=O)NC(=O)[C@@H](NC(=O)[C@H](C)NC(=O)[C@@H]1CSSC[C@H](NC(=O)[C@@H](N)CCCCNC(=O)COCCOCCNC(=O)CC[C@H](NC(=O)CCCCCCCCCCCCCCCCCCC(=O)O)C(=O)O)C(=O)N[C@@H](CC(N)=O)C(=O)N[C@@H]([C@@H](C)O)C(=O)N[C@@H](C)C(=O)N[C@@H]([C@@H](C)O)C(=O)N1)[C@@H](C)O)C(=O)N1CCC[C@H]1C(=O)N[C@@H](CO)C(=O)N[C@@H](CO)C(=O)N[C@H](C(=O)N1CCC[C@H]1C(=O)N[C@H](C(=O)NCC(=O)N[C@@H](CO)C(=O)N[C@@H](CC(N)=O)C(=O)N[C@H](C(=O)N[C@@H](Cc1ccc(O)cc1)C(N)=O)[C@@H](C)O)C(C)C)[C@@H](C)O
# notes: also called 71; compound 71
# B2: N^ε1-[2-[2-[2-[[(4S)-4-carboxy-4-(19-carboxynonadecanoylamino)butanoyl]amino]ethoxy]ethoxy]acetyl]-[His14,Arg17,Pro21,Pro27,His34]-h-amylin (peptide)
# peptide: K([AEEA-γGlu-C20 diacid])CNTATCATQRLAHFLRHSSPNFGAIPSSTNVGHNTY-NH2
# modifications: disulfide 2-7; N-terminus assumed
# SMILES: CC[C@H](C)[C@H](NC(=O)[C@H](C)NC(=O)CNC(=O)[C@H](Cc1ccccc1)NC(=O)[C@H](CC(N)=O)NC(=O)[C@@H]1CCCN1C(=O)[C@H](CO)NC(=O)[C@H](CO)NC(=O)[C@H](Cc1c[nH]cn1)NC(=O)[C@H](CCCNC(=N)N)NC(=O)[C@H](CC(C)C)NC(=O)[C@H](Cc1ccccc1)NC(=O)[C@H](Cc1c[nH]cn1)NC(=O)[C@H](C)NC(=O)[C@H](CC(C)C)NC(=O)[C@H](CCCNC(=N)N)NC(=O)[C@H](CCC(N)=O)NC(=O)[C@@H](NC(=O)[C@H](C)NC(=O)[C@@H]1CSSC[C@H](NC(=O)[C@@H](N)CCCCNC(=O)COCCOCCNC(=O)CC[C@H](NC(=O)CCCCCCCCCCCCCCCCCCC(=O)O)C(=O)O)C(=O)N[C@@H](CC(N)=O)C(=O)N[C@@H]([C@@H](C)O)C(=O)N[C@@H](C)C(=O)N[C@@H]([C@@H](C)O)C(=O)N1)[C@@H](C)O)C(=O)N1CCC[C@H]1C(=O)N[C@@H](CO)C(=O)N[C@@H](CO)C(=O)N[C@H](C(=O)N[C@@H](CC(N)=O)C(=O)N[C@H](C(=O)NCC(=O)N[C@@H](Cc1c[nH]cn1)C(=O)N[C@@H](CC(N)=O)C(=O)N[C@H](C(=O)N[C@@H](Cc1ccc(O)cc1)C(N)=O)[C@@H](C)O)C(C)C)[C@@H](C)O
# notes: also called 80; compound 80
# B3: N^ε1-[2-[2-[2-[[(4S)-4-carboxy-4-(19-carboxynonadecanoylamino)butanoyl]amino]ethoxy]ethoxy]acetyl]-[His14,Arg17,Pro21,Pro27,Pro34]-h-amylin (peptide)
# peptide: K([AEEA-γGlu-C20 diacid])CNTATCATQRLAHFLRHSSPNFGAIPSSTNVGPNTY-NH2
# modifications: disulfide 2-7; N-terminus assumed
# SMILES: CC[C@H](C)[C@H](NC(=O)[C@H](C)NC(=O)CNC(=O)[C@H](Cc1ccccc1)NC(=O)[C@H](CC(N)=O)NC(=O)[C@@H]1CCCN1C(=O)[C@H](CO)NC(=O)[C@H](CO)NC(=O)[C@H](Cc1c[nH]cn1)NC(=O)[C@H](CCCNC(=N)N)NC(=O)[C@H](CC(C)C)NC(=O)[C@H](Cc1ccccc1)NC(=O)[C@H](Cc1c[nH]cn1)NC(=O)[C@H](C)NC(=O)[C@H](CC(C)C)NC(=O)[C@H](CCCNC(=N)N)NC(=O)[C@H](CCC(N)=O)NC(=O)[C@@H](NC(=O)[C@H](C)NC(=O)[C@@H]1CSSC[C@H](NC(=O)[C@@H](N)CCCCNC(=O)COCCOCCNC(=O)CC[C@H](NC(=O)CCCCCCCCCCCCCCCCCCC(=O)O)C(=O)O)C(=O)N[C@@H](CC(N)=O)C(=O)N[C@@H]([C@@H](C)O)C(=O)N[C@@H](C)C(=O)N[C@@H]([C@@H](C)O)C(=O)N1)[C@@H](C)O)C(=O)N1CCC[C@H]1C(=O)N[C@@H](CO)C(=O)N[C@@H](CO)C(=O)N[C@H](C(=O)N[C@@H](CC(N)=O)C(=O)N[C@H](C(=O)NCC(=O)N1CCC[C@H]1C(=O)N[C@@H](CC(N)=O)C(=O)N[C@H](C(=O)N[C@@H](Cc1ccc(O)cc1)C(N)=O)[C@@H](C)O)C(C)C)[C@@H](C)O
# notes: also called 68; compound 68
# B4: N^ε1-[2-[2-[2-[[(4S)-4-carboxy-4-(19-carboxynonadecanoylamino)butanoyl]amino]ethoxy]ethoxy]acetyl]-[His14,Arg17,Pro21,Pro27,Arg34]-h-amylin (peptide)
# peptide: K([AEEA-γGlu-C20 diacid])CNTATCATQRLAHFLRHSSPNFGAIPSSTNVGRNTY-NH2
# modifications: disulfide 2-7; N-terminus assumed
# SMILES: CC[C@H](C)[C@H](NC(=O)[C@H](C)NC(=O)CNC(=O)[C@H](Cc1ccccc1)NC(=O)[C@H](CC(N)=O)NC(=O)[C@@H]1CCCN1C(=O)[C@H](CO)NC(=O)[C@H](CO)NC(=O)[C@H](Cc1c[nH]cn1)NC(=O)[C@H](CCCNC(=N)N)NC(=O)[C@H](CC(C)C)NC(=O)[C@H](Cc1ccccc1)NC(=O)[C@H](Cc1c[nH]cn1)NC(=O)[C@H](C)NC(=O)[C@H](CC(C)C)NC(=O)[C@H](CCCNC(=N)N)NC(=O)[C@H](CCC(N)=O)NC(=O)[C@@H](NC(=O)[C@H](C)NC(=O)[C@@H]1CSSC[C@H](NC(=O)[C@@H](N)CCCCNC(=O)COCCOCCNC(=O)CC[C@H](NC(=O)CCCCCCCCCCCCCCCCCCC(=O)O)C(=O)O)C(=O)N[C@@H](CC(N)=O)C(=O)N[C@@H]([C@@H](C)O)C(=O)N[C@@H](C)C(=O)N[C@@H]([C@@H](C)O)C(=O)N1)[C@@H](C)O)C(=O)N1CCC[C@H]1C(=O)N[C@@H](CO)C(=O)N[C@@H](CO)C(=O)N[C@H](C(=O)N[C@@H](CC(N)=O)C(=O)N[C@H](C(=O)NCC(=O)N[C@@H](CCCNC(=N)N)C(=O)N[C@@H](CC(N)=O)C(=O)N[C@H](C(=O)N[C@@H](Cc1ccc(O)cc1)C(N)=O)[C@@H](C)O)C(C)C)[C@@H](C)O
# notes: also called 84; compound 84
# B5: N^ε1-[2-[2-[2-[[(4S)-4-carboxy-4-(19-carboxynonadecanoylamino)butanoyl]amino]ethoxy]ethoxy]acetyl]-[His14,Arg17,Pro21,Pro27]-h-amylin (peptide)
# peptide: K([AEEA-γGlu-C20 diacid])CNTATCATQRLAHFLRHSSPNFGAIPSSTNVGSNTY-NH2
# modifications: disulfide 2-7; N-terminus assumed
# SMILES: CC[C@H](C)[C@H](NC(=O)[C@H](C)NC(=O)CNC(=O)[C@H](Cc1ccccc1)NC(=O)[C@H](CC(N)=O)NC(=O)[C@@H]1CCCN1C(=O)[C@H](CO)NC(=O)[C@H](CO)NC(=O)[C@H](Cc1c[nH]cn1)NC(=O)[C@H](CCCNC(=N)N)NC(=O)[C@H](CC(C)C)NC(=O)[C@H](Cc1ccccc1)NC(=O)[C@H](Cc1c[nH]cn1)NC(=O)[C@H](C)NC(=O)[C@H](CC(C)C)NC(=O)[C@H](CCCNC(=N)N)NC(=O)[C@H](CCC(N)=O)NC(=O)[C@@H](NC(=O)[C@H](C)NC(=O)[C@@H]1CSSC[C@H](NC(=O)[C@@H](N)CCCCNC(=O)COCCOCCNC(=O)CC[C@H](NC(=O)CCCCCCCCCCCCCCCCCCC(=O)O)C(=O)O)C(=O)N[C@@H](CC(N)=O)C(=O)N[C@@H]([C@@H](C)O)C(=O)N[C@@H](C)C(=O)N[C@@H]([C@@H](C)O)C(=O)N1)[C@@H](C)O)C(=O)N1CCC[C@H]1C(=O)N[C@@H](CO)C(=O)N[C@@H](CO)C(=O)N[C@H](C(=O)N[C@@H](CC(N)=O)C(=O)N[C@H](C(=O)NCC(=O)N[C@@H](CO)C(=O)N[C@@H](CC(N)=O)C(=O)N[C@H](C(=O)N[C@@H](Cc1ccc(O)cc1)C(N)=O)[C@@H](C)O)C(C)C)[C@@H](C)O
# notes: also called 69; compound 69
# B6: N^ε1-[2-[2-[2-[[(4S)-4-carboxy-4-(19-carboxynonadecanoylamino)butanoyl]amino]ethoxy]ethoxy]acetyl]-[His14,Arg17,Pro21,Pro27,Pro31]-h-amylin (peptide)
# peptide: K([AEEA-γGlu-C20 diacid])CNTATCATQRLAHFLRHSSPNFGAIPSSTPVGSNTY-NH2
# modifications: disulfide 2-7; N-terminus assumed
# SMILES: CC[C@H](C)[C@H](NC(=O)[C@H](C)NC(=O)CNC(=O)[C@H](Cc1ccccc1)NC(=O)[C@H](CC(N)=O)NC(=O)[C@@H]1CCCN1C(=O)[C@H](CO)NC(=O)[C@H](CO)NC(=O)[C@H](Cc1c[nH]cn1)NC(=O)[C@H](CCCNC(=N)N)NC(=O)[C@H](CC(C)C)NC(=O)[C@H](Cc1ccccc1)NC(=O)[C@H](Cc1c[nH]cn1)NC(=O)[C@H](C)NC(=O)[C@H](CC(C)C)NC(=O)[C@H](CCCNC(=N)N)NC(=O)[C@H](CCC(N)=O)NC(=O)[C@@H](NC(=O)[C@H](C)NC(=O)[C@@H]1CSSC[C@H](NC(=O)[C@@H](N)CCCCNC(=O)COCCOCCNC(=O)CC[C@H](NC(=O)CCCCCCCCCCCCCCCCCCC(=O)O)C(=O)O)C(=O)N[C@@H](CC(N)=O)C(=O)N[C@@H]([C@@H](C)O)C(=O)N[C@@H](C)C(=O)N[C@@H]([C@@H](C)O)C(=O)N1)[C@@H](C)O)C(=O)N1CCC[C@H]1C(=O)N[C@@H](CO)C(=O)N[C@@H](CO)C(=O)N[C@H](C(=O)N1CCC[C@H]1C(=O)N[C@H](C(=O)NCC(=O)N[C@@H](CO)C(=O)N[C@@H](CC(N)=O)C(=O)N[C@H](C(=O)N[C@@H](Cc1ccc(O)cc1)C(N)=O)[C@@H](C)O)C(C)C)[C@@H](C)O
# notes: also called 61; compound 61
# Target: T1, human amylin receptor (amylin 3(a) …)
# Assay: SPA displacement of 125I-rat amylin, hAmylin 3(a) receptor membranes
# Summary of the method: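 SPA beads with BHK Amylin 3(a)/CRE-luc cell membranes (35 ng/μL final) in 50 mM Hepes pH 7.4, 1 mM CaCl2, 5 mM MgCl₂, 0.1% OA, 0.02% Tween20.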
row,IC50 [nM],Binder
1,0.048,B1
2,0.29,B2
3,0.088,B3
4,0.743,B4
5,0.133,B5
6,0.122,B6
